Here are results for one substance from US20240024490A1, “BIFUNCTIONAL MOLECULES FOR SELECTIVE MODIFICATION OF TARGET SUBSTRATES” (The Broad Institute, Inc., priority 2021, published 2024).

This assay addresses SmBiT fused to the N-terminus of BCR-ABL. In words: NanoBiT split-luciferase complementation in cells, LgBiT and SmBiT at the N-terminus of BCR-ABL; complex induced by a homo-bifunctional small molecule (homo-PHICS).

Regarding “LgBiT fused to the N-terminus of BCR-ABL (enzyme)”, the fold increase in luminescence compared to the DMSO/background was determined as 6 fold.
